Entries after “also recorded” stand apart in the source; their conditions may differ.
How the values were obtained:
Ala-proNPY = assay: Digestion of Ala-proNPY with ruLAP2; format: biochemical; details: overnight 37° C.
Protocol: The digested material was isolated by RP-HPLC and characterized by ESI-MS. […] The same result is obtained at an 1:[…] ratio. Digestion halts when the enzyme reaches a Xaa-Pro-motif, which in case of proNPY is Tyr-Pro. Conditions of incubation were the same as for Gly-Ser-proNPY.

[1] = Aminopeptidase P activity assay; format: biochemical; details: substrate Lys(Abz)-Pro-Pro-pNA, 5 mM, 37° C., 60 min
Protocol: (§1) Aminopeptidase activity was determined using different fluorogenic aminoacyl-4-methylcoumaryl-7-amide derivatives of peptides and the internally quenched fluorogenic substrate Lys(Abz)-Pro-Pro-pNA for specific determination of aminopeptidase P activity. Stockel et al, Adv Exp. Med. Biol. 421:31-35 (1997). All substrates were from Bachem (Bubendorf, Switzerland). Substrate stock solutions were prepared at 0.1 M according to the recommendations of the manufacturer and stored at −20° C. The reaction mixture contained a concentration of 5 mM substrate and enzyme preparation (between 56 and 2,662 ng per assay depending on the cleavage activity of each enzyme for the substrates) in 25 μl of 50 mM Tris-HCl buffer adjusted at the optimal pH for each LAP (between 7 and 8). After incubation at 37° C. for 60 min, the reaction was terminated by adding 5 μl of glacial acetic acid and the reaction mixture was diluted with 3.5 ml of water. The released 7-amino-4-methylcoumarin (AMC) was measured using a spectrofluorophotometer (Perkin Elmer LS-5 fluorometer, Zurich, Switzerland) at an excitation wavelength of 370 nm and an emission wavelength of 460 nm. A standard curve made with synthetic AMC was used to assess the released AMC. The released diprolyl-p-nitroanilide was measured at an excitation wavelength of 310 nm and an emission wavelength of 410 nm. The LA activities were expressed in mnoles of released AMC or pNA/min/μg protein.

gliadin 33 mer = assay: Digestion of gliadin 33 mer (RP-HPLC, ESI-MS); format: biochemical, wheat; details: within 4 h
[2] = test system: gliadin 14 mer PQPQLPYPQPQLPY; format: biochemical, wheat; details: 4 h, 37° C., 1 mM CoCl2, pH7.2
[3] = Aminopeptidase activity assay with fluorogenic aminoacyl-AMC substrates; format: biochemical
Protocol: as §1
Table 15 details the hydrolytic activity of different LAPs toward various aminoacyl-MCA comparison (%) to Leu-MCA used as a standard.

denatured casein = assay: Digestion of full-length polypeptide chain (denatured casein); format: biochemical; details: partially purified, in the presence of a trypsin-like endoprotease from the P. pastoris expression system

B1: ruLAP2: T. rubrum leucine aminopeptidase, 495 amino acid residues (SEQ ID NO: 3) (protein, listed as Trichophyton rubrum)
chain: MKSQLLSLAVAVTTISQGVVGQEPFGWPFKPMVTQDDLQNKIKLKDIMAGVEKLQSFSDAHPEKNRVFGGNGHKDTVEWIYNEIKATGYYDVKKQEQVHLWSHAEAALNANGKDLKASAMSYSPPASKIMAELVVAKNNGCNATDYPANTQGKIVLVERGVCSFGEKSAQAGDAKAAGAIVYNNVPGSLAGTLGGLDKRHVPTAGLSQEDGKNLATLVASGKIDVTMNVISLFENRTTWNVIAETKGGDHNNVIMLGAHSDSVDAGPGINDNGSGSIGIMTVAKALTNFKLNNAVRFAWWTAEEFGLLGSTFYVNSLDDRELHKVKLYLNFDMIGSPNFANQIYDGDGSAYNMTGPAGSAEIEYLFEKFFDDQGIPHQPTAFTGRSDYSAFIKRNVPAGGLFTGAEVVKTPEQVKLFGGEAGVAYDKNYHRKGDTVANINKGAIFLNTRAIAYAIAEYARSLKGFPTRPKTGKRDVNPQYSKMPGGGCGHHTVFM
Question: Which “removal of N-terminal alanine from Ala-proNPY” value (Ala-proNPY) does the source give for B1 here?
Answer: almost totally removed

Question: And the “hydrolytic activity toward Lys(Abz) Pro-PropNA in comparison (%) to Leu-MCA” value [1]?
Answer: 0.0%

Question: What about the “partial degradation of the 33 mer” value (gliadin 33 mer) of the same molecule?
Answer: less than 50%

Question: What about the “digestion of the 14 mer” value [2] of the same molecule?
Answer: not digested; also recorded: results only in the cleavage of the N-terminal Proline

Question: What about the “hydrolysis of Leu-AMC” value [3] of the same molecule?
Answer: efficiently hydrolyzed

Question: What about the “hydrolytic activity toward Ala-AMC in comparison (%) to Leu-MCA” value ([3]; substrate Ala-AMC, 5 mM, 37° C., 60 min) of the same molecule?
Answer: 33.3%

Question: What about the “hydrolytic activity toward Arg-AMC in comparison (%) to Leu-MCA” value ([3]; substrate Arg-AMC, 5 mM, 37° C., 60 min) of the same molecule?
Answer: 1.9%

Question: What about the “hydrolytic activity toward Asn-AMC in comparison (%) to Leu-MCA” value ([3]; substrate Asn-AMC, 5 mM, 37° C., 60 min) of the same molecule?
Answer: 114.6%

Question: What about the “hydrolytic activity toward Asp-AMC in comparison (%) to Leu-MCA” value ([3]; substrate Asp-AMC, 5 mM, 37° C., 60 min) of the same molecule?
Answer: 3.8%

Question: And the “hydrolytic activity toward Cys-AMC in comparison (%) to Leu-MCA” value ([3]; substrate Cys-AMC, 5 mM, 37° C., 60 min)?
Answer: 14.9%

Question: What about the “hydrolytic activity toward Gln-AMC in comparison (%) to Leu-MCA” value ([3]; substrate Gln-AMC, 5 mM, 37° C., 60 min) of the same molecule?
Answer: 49.9%

Question: And the “hydrolytic activity toward Glu-AMC in comparison (%) to Leu-MCA” value ([3]; substrate Glu-AMC, 5 mM, 37° C., 60 min)?
Answer: 3.7%

Question: What about the “hydrolytic activity toward Gly-AMC in comparison (%) to Leu-MCA” value ([3]; substrate Gly-AMC, 5 mM, 37° C., 60 min) of the same molecule?
Answer: 3.3%

Question: And the “hydrolytic activity toward Gly-Pro-AMC in comparison (%) to Leu-MCA” value ([3]; substrate Gly-Pro-AMC, 5 mM, 37° C., 60 min)?
Answer: 7.2%

Question: And the “hydrolytic activity toward His-AMC in comparison (%) to Leu-MCA” value ([3]; substrate His-AMC, 5 mM, 37° C., 60 min)?
Answer: 0.6%

Question: What about the “hydrolytic activity toward Hyp-AMC in comparison (%) to Leu-MCA” value ([3]; substrate Hyp-AMC, 5 mM, 37° C., 60 min) of the same molecule?
Answer: 14.2%

Question: What about the “hydrolytic activity toward Ile-AMC in comparison (%) to Leu-MCA” value ([3]; substrate Ile-AMC, 5 mM, 37° C., 60 min) of the same molecule?
Answer: 6.4%

Question: And the “hydrolytic activity toward Leu-AMC in comparison (%) to Leu-MCA used as a standard” value ([3]; substrate Leu-AMC (standard), 5 mM, 37° C., 60 min)?
Answer: 100.0%

Question: And the “hydrolytic activity toward Lys-AMC in comparison (%) to Leu-MCA” value ([3]; substrate Lys-AMC, 5 mM, 37° C., 60 min)?
Answer: 4.6%

Question: What about the “hydrolytic activity toward Met-AMC in comparison (%) to Leu-MCA” value ([3]; substrate Met-AMC, 5 mM, 37° C., 60 min) of the same molecule?
Answer: 119.7%

Question: What about the “hydrolytic activity toward Phe-AMC in comparison (%) to Leu-MCA” value ([3]; substrate Phe-AMC, 5 mM, 37° C., 60 min) of the same molecule?
Answer: 17.1%

Question: And the “hydrolytic activity toward Pro-AMC in comparison (%) to Leu-MCA” value ([3]; substrate Pro-AMC, 5 mM, 37° C., 60 min)?
Answer: 21.4%

Question: And the “hydrolytic activity toward Pyr-AMC in comparison (%) to Leu-MCA” value ([3]; substrate Pyr-AMC, 5 mM, 37° C., 60 min)?
Answer: 0.0%

Question: What about the “hydrolytic activity toward Ser-AMC in comparison (%) to Leu-MCA” value ([3]; substrate Ser-AMC, 5 mM, 37° C., 60 min) of the same molecule?
Answer: 26.1%

Question: And the “hydrolytic activity toward Thr-AMC in comparison (%) to Leu-MCA” value ([3]; substrate Thr-AMC, 5 mM, 37° C., 60 min)?
Answer: 0.9%

Question: What about the “hydrolytic activity toward Val-AMC in comparison (%) to Leu-MCA” value ([3]; substrate Val-AMC, 5 mM, 37° C., 60 min) of the same molecule?
Answer: 4.8%

Question: What about the “digestion of denatured casein” value (denatured casein) of the same molecule?
Answer: sequentially digest a full-length polypeptide chain, such as denatured casein

— patent US7943340B2, “Fungal dipeptidyl peptidase IV (DPPIV) enzyme for reagent use” (priority 2003, dated 2011)
